From patent EP4692114A1, “CALCITONIN ANALOGUE, AND DERIVATIVE THEREOF AND USE THEREOF” (Hangzhou Sciwind Biosciences Co., Ltd., priority 2023, dated 2024)
*1 amine or outer side, *2 acyl side, *3 side chain or, on linkers, in order; H or OH if unused. Primed or numbered codes have the meaning given here. The star is where a group is joined. C20 diacid = O=C(O)CCCCCCCCCCCCCCCCCCC(=O)*; γGlu = O=C(O)[C@H](CCC(=O)[*:2])N[*:1]; βAsp = O=C(O)[C@H](CC(=O)[*:2])N[*:1]; Inp′ = not defined here; AEEA = NCCOCCOCC(=O)O

T1: human amylin receptor (AMY3) on CHO-K1/Gal5/AMY3 cells (human, UniProt P30988 25-474; O60896 24-148)
T1 sequence (looked up) 1: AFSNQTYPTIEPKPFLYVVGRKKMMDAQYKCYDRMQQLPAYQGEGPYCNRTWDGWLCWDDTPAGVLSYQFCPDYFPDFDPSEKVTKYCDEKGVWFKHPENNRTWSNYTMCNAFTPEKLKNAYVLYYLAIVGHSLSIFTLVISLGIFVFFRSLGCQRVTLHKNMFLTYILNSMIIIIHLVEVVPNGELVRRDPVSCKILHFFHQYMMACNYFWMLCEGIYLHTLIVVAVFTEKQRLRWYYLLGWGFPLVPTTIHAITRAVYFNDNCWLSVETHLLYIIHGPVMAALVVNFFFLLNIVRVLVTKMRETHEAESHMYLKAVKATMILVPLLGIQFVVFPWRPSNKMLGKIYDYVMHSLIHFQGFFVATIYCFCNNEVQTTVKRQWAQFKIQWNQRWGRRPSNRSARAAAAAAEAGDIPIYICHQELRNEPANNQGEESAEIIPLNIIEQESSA
T1 sequence (looked up) 2: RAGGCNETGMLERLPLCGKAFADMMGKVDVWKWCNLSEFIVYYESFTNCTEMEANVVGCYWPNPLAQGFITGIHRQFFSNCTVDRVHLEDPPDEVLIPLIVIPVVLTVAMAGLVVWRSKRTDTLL

B1: calcitonin derivative M63 (peptide)
peptide: {C20 diacid-γGlu-AEEA-AEEA-AEEA-AEEA}-ASQLSTAVLGRLSEELHRLQDYPRTDVGSGSP-NH2
SMILES: CC(C)C[C@H](NC(=O)[C@H](CCCNC(=N)N)NC(=O)CNC(=O)[C@H](CC(C)C)NC(=O)[C@@H](NC(=O)[C@H](C)NC(=O)[C@@H](NC(=O)[C@H](CO)NC(=O)[C@H](CC(C)C)NC(=O)[C@H](CCC(N)=O)NC(=O)[C@H](CO)NC(=O)[C@H](C)NC(=O)COCCOCCNC(=O)COCCOCCNC(=O)COCCOCCNC(=O)COCCOCCNC(=O)CC[C@H](NC(=O)CCCCCCCCCCCCCCCCCCC(=O)O)C(=O)O)[C@@H](C)O)C(C)C)C(=O)N[C@@H](CO)C(=O)N[C@@H](CCC(=O)O)C(=O)N[C@@H](CCC(=O)O)C(=O)N[C@@H](CC(C)C)C(=O)N[C@@H](Cc1c[nH]cn1)C(=O)N[C@@H](CCCNC(=N)N)C(=O)N[C@@H](CC(C)C)C(=O)N[C@@H](CCC(N)=O)C(=O)N[C@@H](CC(=O)O)C(=O)N[C@@H](Cc1ccc(O)cc1)C(=O)N1CCC[C@H]1C(=O)N[C@@H](CCCNC(=N)N)C(=O)N[C@H](C(=O)N[C@@H](CC(=O)O)C(=O)N[C@H](C(=O)NCC(=O)N[C@@H](CO)C(=O)NCC(=O)N[C@@H](CO)C(=O)N1CCC[C@H]1C(N)=O)C(C)C)[C@@H](C)O
B2: calcitonin derivative M15 (peptide)
peptide: {C20 diacid-γGlu}-ASQLSTAVLGRLSQELHRLQDYPRTQVGSGSP-NH2
SMILES: CC(C)C[C@H](NC(=O)[C@H](CCCNC(=N)N)NC(=O)CNC(=O)[C@H](CC(C)C)NC(=O)[C@@H](NC(=O)[C@H](C)NC(=O)[C@@H](NC(=O)[C@H](CO)NC(=O)[C@H](CC(C)C)NC(=O)[C@H](CCC(N)=O)NC(=O)[C@H](CO)NC(=O)[C@H](C)NC(=O)CC[C@H](NC(=O)CCCCCCCCCCCCCCCCCCC(=O)O)C(=O)O)[C@@H](C)O)C(C)C)C(=O)N[C@@H](CO)C(=O)N[C@@H](CCC(N)=O)C(=O)N[C@@H](CCC(=O)O)C(=O)N[C@@H](CC(C)C)C(=O)N[C@@H](Cc1c[nH]cn1)C(=O)N[C@@H](CCCNC(=N)N)C(=O)N[C@@H](CC(C)C)C(=O)N[C@@H](CCC(N)=O)C(=O)N[C@@H](CC(=O)O)C(=O)N[C@@H](Cc1ccc(O)cc1)C(=O)N1CCC[C@H]1C(=O)N[C@@H](CCCNC(=N)N)C(=O)N[C@H](C(=O)N[C@@H](CCC(N)=O)C(=O)N[C@H](C(=O)NCC(=O)N[C@@H](CO)C(=O)NCC(=O)N[C@@H](CO)C(=O)N1CCC[C@H]1C(N)=O)C(C)C)[C@@H](C)O
B3: calcitonin derivative M53 (peptide)
peptide: {C20 diacid-βAsp}-ASQLSTAVLGRLSEELHRLQDYPRTDVGSGSP-NH2
SMILES: CC(C)C[C@H](NC(=O)[C@H](CCCNC(=N)N)NC(=O)CNC(=O)[C@H](CC(C)C)NC(=O)[C@@H](NC(=O)[C@H](C)NC(=O)[C@@H](NC(=O)[C@H](CO)NC(=O)[C@H](CC(C)C)NC(=O)[C@H](CCC(N)=O)NC(=O)[C@H](CO)NC(=O)[C@H](C)NC(=O)C[C@H](NC(=O)CCCCCCCCCCCCCCCCCCC(=O)O)C(=O)O)[C@@H](C)O)C(C)C)C(=O)N[C@@H](CO)C(=O)N[C@@H](CCC(=O)O)C(=O)N[C@@H](CCC(=O)O)C(=O)N[C@@H](CC(C)C)C(=O)N[C@@H](Cc1c[nH]cn1)C(=O)N[C@@H](CCCNC(=N)N)C(=O)N[C@@H](CC(C)C)C(=O)N[C@@H](CCC(N)=O)C(=O)N[C@@H](CC(=O)O)C(=O)N[C@@H](Cc1ccc(O)cc1)C(=O)N1CCC[C@H]1C(=O)N[C@@H](CCCNC(=N)N)C(=O)N[C@H](C(=O)N[C@@H](CC(=O)O)C(=O)N[C@H](C(=O)NCC(=O)N[C@@H](CO)C(=O)NCC(=O)N[C@@H](CO)C(=O)N1CCC[C@H]1C(N)=O)C(C)C)[C@@H](C)O
B4: calcitonin derivative M29 (peptide)
peptide: {C20 diacid-γGlu}-ASQLSTSVLGRLSQELHRLQDYPRTDVGSGSP-NH2
SMILES: CC(C)C[C@H](NC(=O)[C@H](CCCNC(=N)N)NC(=O)CNC(=O)[C@H](CC(C)C)NC(=O)[C@@H](NC(=O)[C@H](CO)NC(=O)[C@@H](NC(=O)[C@H](CO)NC(=O)[C@H](CC(C)C)NC(=O)[C@H](CCC(N)=O)NC(=O)[C@H](CO)NC(=O)[C@H](C)NC(=O)CC[C@H](NC(=O)CCCCCCCCCCCCCCCCCCC(=O)O)C(=O)O)[C@@H](C)O)C(C)C)C(=O)N[C@@H](CO)C(=O)N[C@@H](CCC(N)=O)C(=O)N[C@@H](CCC(=O)O)C(=O)N[C@@H](CC(C)C)C(=O)N[C@@H](Cc1c[nH]cn1)C(=O)N[C@@H](CCCNC(=N)N)C(=O)N[C@@H](CC(C)C)C(=O)N[C@@H](CCC(N)=O)C(=O)N[C@@H](CC(=O)O)C(=O)N[C@@H](Cc1ccc(O)cc1)C(=O)N1CCC[C@H]1C(=O)N[C@@H](CCCNC(=N)N)C(=O)N[C@H](C(=O)N[C@@H](CC(=O)O)C(=O)N[C@H](C(=O)NCC(=O)N[C@@H](CO)C(=O)NCC(=O)N[C@@H](CO)C(=O)N1CCC[C@H]1C(N)=O)C(C)C)[C@@H](C)O
B5: calcitonin derivative M14 (peptide)
peptide: {C20 diacid-γGlu}-ASQLSTAVLGRLSQELHRLEEYPRTDVGSGSP-NH2
SMILES: CC(C)C[C@H](NC(=O)[C@H](CCCNC(=N)N)NC(=O)CNC(=O)[C@H](CC(C)C)NC(=O)[C@@H](NC(=O)[C@H](C)NC(=O)[C@@H](NC(=O)[C@H](CO)NC(=O)[C@H](CC(C)C)NC(=O)[C@H](CCC(N)=O)NC(=O)[C@H](CO)NC(=O)[C@H](C)NC(=O)CC[C@H](NC(=O)CCCCCCCCCCCCCCCCCCC(=O)O)C(=O)O)[C@@H](C)O)C(C)C)C(=O)N[C@@H](CO)C(=O)N[C@@H](CCC(N)=O)C(=O)N[C@@H](CCC(=O)O)C(=O)N[C@@H](CC(C)C)C(=O)N[C@@H](Cc1c[nH]cn1)C(=O)N[C@@H](CCCNC(=N)N)C(=O)N[C@@H](CC(C)C)C(=O)N[C@@H](CCC(=O)O)C(=O)N[C@@H](CCC(=O)O)C(=O)N[C@@H](Cc1ccc(O)cc1)C(=O)N1CCC[C@H]1C(=O)N[C@@H](CCCNC(=N)N)C(=O)N[C@H](C(=O)N[C@@H](CC(=O)O)C(=O)N[C@H](C(=O)NCC(=O)N[C@@H](CO)C(=O)NCC(=O)N[C@@H](CO)C(=O)N1CCC[C@H]1C(N)=O)C(C)C)[C@@H](C)O

Molecular target: T1, human amylin receptor (AMY3) on …
Test: cell-based or functional assay

EC50/nM, CRE-luciferase in amylin receptor/CRE-luc CHO cells | Binder
0.037 nM | B1
0.016 nM | B2
0.017 nM | B3
0.082 nM | {C20 diacid-Inp′}-ASQLSTAVLGRLSDELHRLQDYPRTDVGSGSP-NH2 [calcitonin derivative M47]
0.016 nM | {C20 diacid-Inp′-AEEA-AEEA}-ASQLSTAVLGRLSEELHRLQDYPRTDVGSGSP-NH2 [calcitonin derivative M62]
0.017 nM | B4
0.017 nM | B5
